In US20090318338:

System: RSK2
Sequence (chain, as listed by the source): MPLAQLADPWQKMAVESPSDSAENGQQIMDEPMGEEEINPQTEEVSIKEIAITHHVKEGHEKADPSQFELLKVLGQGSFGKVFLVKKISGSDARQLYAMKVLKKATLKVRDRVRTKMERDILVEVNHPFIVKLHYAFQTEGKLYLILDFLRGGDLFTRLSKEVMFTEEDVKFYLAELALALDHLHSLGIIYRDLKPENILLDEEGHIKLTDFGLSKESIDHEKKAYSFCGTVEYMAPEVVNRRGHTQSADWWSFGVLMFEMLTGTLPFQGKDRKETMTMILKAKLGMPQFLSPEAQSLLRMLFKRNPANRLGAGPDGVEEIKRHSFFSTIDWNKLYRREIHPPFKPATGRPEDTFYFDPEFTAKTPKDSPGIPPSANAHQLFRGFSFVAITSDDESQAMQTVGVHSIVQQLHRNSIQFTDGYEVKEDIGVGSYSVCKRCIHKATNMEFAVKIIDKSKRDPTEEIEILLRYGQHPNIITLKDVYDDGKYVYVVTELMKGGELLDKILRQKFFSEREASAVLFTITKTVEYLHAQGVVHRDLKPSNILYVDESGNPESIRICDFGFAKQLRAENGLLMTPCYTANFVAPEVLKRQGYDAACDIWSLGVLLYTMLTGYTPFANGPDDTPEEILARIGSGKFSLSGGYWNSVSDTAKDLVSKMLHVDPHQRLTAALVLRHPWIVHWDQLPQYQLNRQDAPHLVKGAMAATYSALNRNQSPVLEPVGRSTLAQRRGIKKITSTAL

For WWP1, the RSK2 ubiquitination was “WWP1 can promote low levels of RSK2 ubiquitination”.
